The values that follow come from US20020086014A1 (Bristol-Myers Squibb, published 2002).

In test [1] the target is human CTLA-4 expressed on cells (human) (UniProt P16410). Nature of the test: flow cytometry (FACScan), cell line expressing recombinant CTLA-4, FITC-anti human IgG. (Flow cytometry measures light scatter and fluorescence of single cells or particles in a stream.)
In a further test the target is macaque CTLA-4 (macaque). The test is described as above.
Another test addresses murine CTLA-4 (murine) (UniProt P09793). Described as above.
Test [2] addresses T1, purified recombinant human CTLA-4 (human, UniProt P16410 36-161, limits assumed).
T1 construct: also called purified CTLA-4; purified recombinant CTLA-4
T1 sequence (looked up): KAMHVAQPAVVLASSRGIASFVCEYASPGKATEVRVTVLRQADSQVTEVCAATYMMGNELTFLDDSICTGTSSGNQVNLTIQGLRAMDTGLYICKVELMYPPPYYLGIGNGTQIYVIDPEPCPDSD
Nature of the test: competitive ELISA on CTLA-4: unlabelled IgG 0-6666 ng/ml against biotin-labelled BNI 3.1. For orientation: ELISA stands for enzyme-linked immunosorbent assay.

In test [3] the target is T1, purified recombinant human CTLA-4. Briefly: competitive ELISA on CTLA-4: unlabelled IgG 0-6666 ng/ml against biotin-labelled 3A4.

Sequence of murine CTLA-4 (murine) (P09793 36-223): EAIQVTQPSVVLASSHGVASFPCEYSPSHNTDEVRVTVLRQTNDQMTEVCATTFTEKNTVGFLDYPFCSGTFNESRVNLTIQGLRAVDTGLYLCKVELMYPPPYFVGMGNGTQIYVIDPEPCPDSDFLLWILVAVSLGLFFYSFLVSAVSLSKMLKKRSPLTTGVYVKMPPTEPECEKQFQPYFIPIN

As for isotype control (Table 5) (antibody), the MFI in test [1] turned out to be 3 MFI; with macaque CTLA-4 (macaque), 4 MFI; with murine CTLA-4 (murine), 5 MFI.

With BNI3 (antibody), the IC50 (read off the curve) was found to be 0.5 µg/mL in test [2] and 0.09 µg/mL in test [3].

B1: 1E2 (antibody, V domains shown)
VH: QVQLVESGGGVVQPGRSLRLSCAASGFTFSSYGMHWVRQAPGKGLEWVAVIWYDGSNKYYADSVKGRFTISRDNSKNTLYLQMNSLRAEDTAVFYCARAPNYIGAFDVWGQGTMVTVSS
VL: DIQMTQSPSSLSASVGDRVTITCRASQGISSWLAWYQQKPEKAPKSLIYAASSLQSGVPSRFSGSGSGTDFTLTISSLQPEDFATYYCQQYNSYPPTFGQGTKVEIK
notes: Human anti-CTLA-4 monoclonal antibody
With B1, in test [3], the “IC50 (read off the curve)” value is about 0.2 µg/mL.
